Reference: the supplement of paper PMC9112550, “Optimization of the antimicrobial peptide Bac7 by deep mutational scanning” (BMC Biology, 2022)

tested on: Escherichia coli TOP10; experiment: shrunken log2 fold change of peptide-encoding DNA abundance (4.5 h post-induction vs induction); higher = less antimicrobial activity (less host growth inhibition); settings: time post-induction: 4.5 h; library: site-saturation at positions 5, 18, 19, 20
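Further: peptides expressed intracellularly from a pBAD plasmid library in pooled LB shake-flask culture, induced with 0.3% L-arabinose, DNA abundance read by NGS, three biological replicates, DESeq2 with apeglm shrinkage.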

| Sequence | shrunken log2 fold change |
| --- | --- |
| RRIRFRPPRLPRPRPRPGPNPRP | -0.0666 |
| RRIRWRPPRLPRPRPRPVKQPRP | -0.092 |
| RRIRARPPRLPRPRPRPYIQPRP | -0.873 |
| RRIRPRPPRLPRPRPRPGYWPRP | 0.278 |
| RRIRERPPRLPRPRPRPSSKPRP | -0.639 |
| RRIRDRPPRLPRPRPRPRLDPRP | 0.173 |
| RRIRKRPPRLPRPRPRPVVMPRP | 3.16 |
| RRIRHRPPRLPRPRPRPPKYPRP | -0.349 |
| RRIRFRPPRLPRPRPRPRPCPRP | 0.386 |
| RRIRTRPPRLPRPRPRPNICPRP | 0.00449 |
| RRIRYRPPRLPRPRPRPAKYPRP | -0.142 |
| RRIRLRPPRLPRPRPRPPNDPRP | 0.0552 |
| RRIRWRPPRLPRPRPRPSYVPRP | -0.651 |
| RRIRRRPPRLPRPRPRPEKIPRP | 0.164 |
| RRIRTRPPRLPRPRPRPQNYPRP | -0.311 |
| RRIRHRPPRLPRPRPRPIQMPRP | -0.00723 |
| RRIRGRPPRLPRPRPRPKKDPRP | 0.708 |
| RRIRDRPPRLPRPRPRPDLEPRP | 0.0526 |
| RRIRCRPPRLPRPRPRPYPAPRP | -0.53 |
| RRIRCRPPRLPRPRPRPMWHPRP | -0.147 |
| RRIRSRPPRLPRPRPRPYYPPRP | -2.8 |
| RRIRTRPPRLPRPRPRPAELPRP | 0.112 |
| RRIRMRPPRLPRPRPRPMIPPRP | -0.448 |
| RRIRLRPPRLPRPRPRPAWKPRP | 0.151 |
| RRIRNRPPRLPRPRPRPHPIPRP | 0.033 |

| Sequence | shrunken log2 fold change |
| --- | --- |
| RRIRFRPPRLPRPRPRPTHSPRP | 0.207 |
| RRIRYRPPRLPRPRPRPYGQPRP | -0.0112 |
| RRIRVRPPRLPRPRPRPRDDPRP | -0.104 |
| RRIRRRPPRLPRPRPRPRGWPRP | 0.979 |
| RRIRCRPPRLPRPRPRPPSKPRP | 0.133 |
| RRIRCRPPRLPRPRPRPNVLPRP | -0.464 |
| RRIRERPPRLPRPRPRPEMFPRP | 0.232 |
| RRIRIRPPRLPRPRPRPNMAPRP | -0.344 |
| RRIRIRPPRLPRPRPRPERHPRP | 0.0733 |
| RRIRSRPPRLPRPRPRPWMHPRP | -0.0312 |
| RRIRPRPPRLPRPRPRPNNNPRP | -0.659 |
| RRIRSRPPRLPRPRPRPNNLPRP | -1.04 |
| RRIRIRPPRLPRPRPRPSKCPRP | -0.788 |
| RRIRNRPPRLPRPRPRPIMRPRP | 0.00621 |
| RRIRGRPPRLPRPRPRPMPRPRP | 1.03 |
| RRIRVRPPRLPRPRPRPRSVPRP | 0.0756 |
| RRIRGRPPRLPRPRPRPNTIPRP | -0.184 |
| RRIRKRPPRLPRPRPRPRDGPRP | 0.822 |
| RRIRSRPPRLPRPRPRPSHHPRP | -0.515 |
| RRIRRRPPRLPRPRPRPLRQPRP | 1.04 |
| RRIRKRPPRLPRPRPRPTTLPRP | 0.0155 |
| RRIRTRPPRLPRPRPRPLCGPRP | 0.0512 |
| RRIRVRPPRLPRPRPRPASIPRP | -0.437 |
| RRIRCRPPRLPRPRPRPIVAPRP | 0.0801 |
| RRIRRRPPRLPRPRPRPFPDPRP | 0.255 |

| Sequence | shrunken log2 fold change |
| --- | --- |
| RRIRQRPPRLPRPRPRPPVSPRP | -0.203 |
| RRIRPRPPRLPRPRPRPCIDPRP | -0.742 |
| RRIRGRPPRLPRPRPRPRGCPRP | 1.37 |
| RRIRYRPPRLPRPRPRPFFRPRP | -0.019 |
| RRIRARPPRLPRPRPRPTYWPRP | 0.144 |
| RRIRIRPPRLPRPRPRPVNRPRP | -0.195 |
| RRIRMRPPRLPRPRPRPCVYPRP | -0.195 |
| RRIRARPPRLPRPRPRPLANPRP | 0.255 |
| RRIRVRPPRLPRPRPRPRWKPRP | 0.328 |
| RRIRSRPPRLPRPRPRPTDKPRP | -0.242 |
| RRIRIRPPRLPRPRPRPVLHPRP | -0.447 |
| RRIRFRPPRLPRPRPRPRCHPRP | -0.0965 |
| RRIRMRPPRLPRPRPRPYKQPRP | -0.000436 |
| RRIRHRPPRLPRPRPRPIKFPRP | -0.0972 |
| RRIRRRPPRLPRPRPRPIFSPRP | 1.06 |
| RRIRRRPPRLPRPRPRPCCRPRP | 0.197 |
| RRIRQRPPRLPRPRPRPITQPRP | -0.132 |
| RRIRRRPPRLPRPRPRPEYSPRP | -0.265 |
| RRIRCRPPRLPRPRPRPPTDPRP | 0.298 |
| RRIRGRPPRLPRPRPRPMYSPRP | 0.208 |
| RRIRVRPPRLPRPRPRPEPNPRP | 0.19 |
| RRIRDRPPRLPRPRPRPSQKPRP | -0.0691 |
| RRIRYRPPRLPRPRPRPFRIPRP | -0.535 |
| RRIRARPPRLPRPRPRPVCIPRP | 0.11 |
| RRIRIRPPRLPRPRPRPFCDPRP | -0.0745 |

| Sequence | shrunken log2 fold change |
| --- | --- |
| RRIRNRPPRLPRPRPRPTYPPRP | -0.275 |
| RRIRNRPPRLPRPRPRPHWYPRP | -0.0582 |
| RRIRIRPPRLPRPRPRPISDPRP | -0.0354 |
| RRIRWRPPRLPRPRPRPMPNPRP | -0.0767 |
| RRIRVRPPRLPRPRPRPWMVPRP | -0.208 |
| RRIRDRPPRLPRPRPRPLPTPRP | 0.358 |
| RRIRKRPPRLPRPRPRPIFPPRP | 0.319 |
| RRIRGRPPRLPRPRPRPKLFPRP | 0.75 |
| RRIRSRPPRLPRPRPRPDVHPRP | -0.0954 |
| RRIRPRPPRLPRPRPRPTYMPRP | -0.0483 |
| RRIRPRPPRLPRPRPRPDSIPRP | -0.598 |
| RRIRIRPPRLPRPRPRPCAIPRP | 0.137 |
| RRIRHRPPRLPRPRPRPYPPPRP | -0.694 |
| RRIRYRPPRLPRPRPRPFRNPRP | -0.462 |
| RRIRSRPPRLPRPRPRPCRRPRP | -0.241 |
| RRIRERPPRLPRPRPRPPIYPRP | -0.633 |
| RRIRYRPPRLPRPRPRPLCFPRP | -0.727 |
| RRIRARPPRLPRPRPRPYHRPRP | -0.047 |
| RRIRLRPPRLPRPRPRPIAAPRP | 0.272 |
| RRIRVRPPRLPRPRPRPRKEPRP | -0.0286 |
| RRIRYRPPRLPRPRPRPQNGPRP | -0.152 |
| RRIRIRPPRLPRPRPRPKSYPRP | -0.605 |
| RRIRYRPPRLPRPRPRPSPIPRP | -1.06 |
| RRIRMRPPRLPRPRPRPEMFPRP | 2.24 |
| RRIRDRPPRLPRPRPRPDGFPRP | 0.0291 |

| Sequence | shrunken log2 fold change |
| --- | --- |
| RRIRPRPPRLPRPRPRPHWHPRP | -0.124 |
| RRIRMRPPRLPRPRPRPAPYPRP | 0.576 |
| RRIRPRPPRLPRPRPRPQMMPRP | -0.41 |
| RRIRQRPPRLPRPRPRPYPLPRP | -0.73 |
| RRIRRRPPRLPRPRPRPCTNPRP | 0.0186 |
| RRIRSRPPRLPRPRPRPSDGPRP | -0.124 |
| RRIRARPPRLPRPRPRPYRPPRP | -0.179 |
| RRIRNRPPRLPRPRPRPNWAPRP | 0.0482 |
| RRIRTRPPRLPRPRPRPHLAPRP | 0.159 |
| RRIRDRPPRLPRPRPRPAEEPRP | 0.168 |
| RRIRRRPPRLPRPRPRPAMGPRP | 0.142 |
| RRIRDRPPRLPRPRPRPVGGPRP | 2.15 |
| RRIRKRPPRLPRPRPRPVNSPRP | 0.0157 |
| RRIRGRPPRLPRPRPRPQAQPRP | 1.02 |
| RRIRRRPPRLPRPRPRPAYVPRP | 0.0253 |
| RRIRKRPPRLPRPRPRPLVRPRP | 0.114 |
| RRIRFRPPRLPRPRPRPQQCPRP | -0.181 |
| RRIRFRPPRLPRPRPRPPDKPRP | 0.151 |
| RRIRCRPPRLPRPRPRPMTRPRP | -0.275 |
| RRIRTRPPRLPRPRPRPSVWPRP | 0.172 |
| RRIRHRPPRLPRPRPRPTMFPRP | -0.0195 |
| RRIRHRPPRLPRPRPRPHLIPRP | -0.097 |
| RRIRNRPPRLPRPRPRPPEVPRP | 0.0233 |
| RRIRYRPPRLPRPRPRPMGGPRP | -0.264 |
| RRIRMRPPRLPRPRPRPVDRPRP | 0.278 |

| Sequence | shrunken log2 fold change |
| --- | --- |
| RRIRCRPPRLPRPRPRPYTLPRP | -1.07 |
| RRIRIRPPRLPRPRPRPAYGPRP | -0.253 |
| RRIRDRPPRLPRPRPRPKTNPRP | -0.0796 |
| RRIRFRPPRLPRPRPRPTADPRP | 0.359 |
| RRIRERPPRLPRPRPRPNQMPRP | -0.0733 |
| RRIRTRPPRLPRPRPRPTCYPRP | -0.0585 |
| RRIRCRPPRLPRPRPRPKYPPRP | -0.196 |
| RRIRIRPPRLPRPRPRPQHWPRP | 0.112 |
| RRIRGRPPRLPRPRPRPWMDPRP | 0.166 |
| RRIRQRPPRLPRPRPRPFDEPRP | -0.153 |
| RRIRSRPPRLPRPRPRPEQKPRP | 0.0179 |
| RRIRYRPPRLPRPRPRPQIPPRP | -0.17 |
| RRIRVRPPRLPRPRPRPLFYPRP | -0.22 |
| RRIRFRPPRLPRPRPRPKYIPRP | -0.678 |
| RRIRDRPPRLPRPRPRPFIIPRP | -0.348 |
| RRIRWRPPRLPRPRPRPYVSPRP | -0.0404 |
| RRIRKRPPRLPRPRPRPCNVPRP | -0.192 |
| RRIRLRPPRLPRPRPRPCQWPRP | -0.0969 |
| RRIRVRPPRLPRPRPRPGIAPRP | 0.0106 |
| RRIRRRPPRLPRPRPRPEKGPRP | -0.0235 |
| RRIRPRPPRLPRPRPRPGYFPRP | -0.0323 |
| RRIRIRPPRLPRPRPRPPSSPRP | -0.0293 |
| RRIRLRPPRLPRPRPRPSSLPRP | -0.39 |
| RRIRDRPPRLPRPRPRPAPEPRP | 0.225 |
| RRIRHRPPRLPRPRPRPTKHPRP | -0.142 |
